According to patent US20240279325A1 (Chugai, published 2024):

T1: FcγRIIb extracellular domain with C-terminal His tag (human, UniProt P31994 43-217)
T1 construct: extracellular domain
T1 sequence (looked up): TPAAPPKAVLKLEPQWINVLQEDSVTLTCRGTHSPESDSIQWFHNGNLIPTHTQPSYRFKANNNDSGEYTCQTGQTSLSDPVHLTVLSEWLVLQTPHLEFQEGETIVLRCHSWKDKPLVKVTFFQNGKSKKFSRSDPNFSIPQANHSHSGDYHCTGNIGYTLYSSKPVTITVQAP

T2: FcγRIIa type R (allotype R131) extracellular domain with C-terminal His tag (human, UniProt P12318 34-217)
T2 construct: extracellular domain; also called FcγRIIaR; FcγRIIa R type
T2 sequence (looked up): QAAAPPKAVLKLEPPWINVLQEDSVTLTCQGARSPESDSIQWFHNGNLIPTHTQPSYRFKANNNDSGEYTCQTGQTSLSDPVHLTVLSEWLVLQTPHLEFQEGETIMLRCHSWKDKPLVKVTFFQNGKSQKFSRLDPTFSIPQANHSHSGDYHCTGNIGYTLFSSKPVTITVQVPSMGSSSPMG


Key:
[1] = molecular target: T1, FcγRIIb extracellular domain with …; test: SPR; KD of IL6R-B3/IL6R-L divided by KD of the variant
[2] = molecular target: T2, FcγRIIa type R (allotype R131) …; test: as above
[3] = molecular target: T1, FcγRIIb extracellular domain with …; test: SPR; KD for FcγRIIaH divided by KD for FcγRIIb
[4] = molecular target: T1, FcγRIIb extracellular domain with …; test: SPR; KD for FcγRIIaR divided by KD for FcγRIIb

KD(IIb) OF PARENT POLYPEPTIDE/KD(IIb) OF ALTERED POLYPEPTIDE [1]	KD(IIaR) OF PARENT POLYPEPTIDE/KD(IIaR) OF ALTERED POLYPEPTIDE [2]	KD(IIaH)/KD(IIb) [3]	KD(IIaR)/KD(IIb) [4]	Binder
1880	21.7	564	30.3	IL6R-BP498/IL6R-L (antibody, human IgG1, kappa, name in EU numbering, copies: 2 + 2) heavy: QVQLQESGPGLVKPSETLSLTCAVSGHSISHDHAWSWVRQPPGEGLEWIGFISYSGITNYNPSLQGRVTISRDNSKNTLYLQMNSLRAEDTAVYYCARSLARTTAMDYWGEGTLVTVSSASTKGPSVFPLAPSSKSTSGGTAALGCLVKDYFPEPVTVSWNSGALTSGVHTFPAVLQSSGLYSLSSVVTVPSSSLGTQTYICNVNHKPSNTKVDKKVEPKSCDKTHTCPPCPAPDLLGDDSVFLFPPKPKDTLMISRTPEVTCVVIDVAEEDGEVKFNWYVDGVEVHNAKTKPREEQYNSTYRVVSVLTVLHQDWLNGKEYKCKVSNKALPRPIEKTISKAKGQPREPQVYTLPPSRDELTKNQVSLTCLVKGFYPSDIAVEWESNGQPENNYKTTPLVLDSDGSFFLYSKLTVDKSRWQQGNVFSCSVMHEALHNHYTQESLSLSP light: not shown
891	6.3	1240	50.6	IL6R-BP511/IL6R-L (antibody, human IgG1, kappa, name in EU numbering, copies: 2 + 2) heavy: QVQLQESGPGLVKPSETLSLTCAVSGHSISHDHAWSWVRQPPGEGLEWIGFISYSGITNYNPSLQGRVTISRDNSKNTLYLQMNSLRAEDTAVYYCARSLARTTAMDYWGEGTLVTVSSASTKGPSVFPLAPSSKSTSGGTAALGCLVKDYFPEPVTVSWNSGALTSGVHTFPAVLQSSGLYSLSSVVTVPSSSLGTQTYICNVNHKPSNTKVDKKVEPKSCDKTHTCPPCPAPELLGDDSVFLFPPKPKDTLMISRTPEVTCVVIDVAEEDGPVKFNWYVDGVEVHNAKTKPREEQDNSTYRVVSVLTVLHQDWLNGKEYKCKVSNKALPRPIEKTISKAKGQPREPQVYTLPPSRDELTKNQVSLTCLVKGFYPSDIAVEWESNGQPENNYKTTPPVLDSDGSFFLYSKLTVDKSRWQQGNVFSCSVMHEALHNHYTQESLSLSP light: not shown
174	2.1	444	29.2	IL6R-BP509/IL6R-L (antibody, human IgG1, kappa, name in EU numbering, copies: 2 + 2) heavy: QVQLQESGPGLVKPSETLSLTCAVSGHSISHDHAWSWVRQPPGEGLEWIGFISYSGITNYNPSLQGRVTISRDNSKNTLYLQMNSLRAEDTAVYYCARSLARTTAMDYWGEGTLVTVSSASTKGPSVFPLAPSSKSTSGGTAALGCLVKDYFPEPVTVSWNSGALTSGVHTFPAVLQSSGLYSLSSVVTVPSSSLGTQTYICNVNHKPSNTKVDKKVEPKSCDKTHTCPPCPAPDLLGDDSVFLFPPKPKDTLMISRTPEVTCVVIDVAEEDGDVKFNWYVDGVEVHNAKTKPREEQDNSTYRVVSVLTVLHQDWLNGKEYKCKVSNKALPAPIEKTISKAKGQPREPQVYTLPPSRDELTKNQVSLTCLVKGFYPSDIAVEWESNGQPENNYKTTPPVLDSDGSFFLYSKLTVDKSRWQQGNVFSCSVMHEALHNHYTQESLSLSP light: not shown
145	2.6	514	20	IL6R-BP505/IL6R-L (antibody, human IgG1, kappa, name in EU numbering, copies: 2 + 2) heavy: QVQLQESGPGLVKPSETLSLTCAVSGHSISHDHAWSWVRQPPGEGLEWIGFISYSGITNYNPSLQGRVTISRDNSKNTLYLQMNSLRAEDTAVYYCARSLARTTAMDYWGEGTLVTVSSASTKGPSVFPLAPSSKSTSGGTAALGCLVKDYFPEPVTVSWNSGALTSGVHTFPAVLQSSGLYSLSSVVTVPSSSLGTQTYICNVNHKPSNTKVDKKVEPKSCDKTHTCPPCPAPDLLGDDSVFLFPPKPKDTLMISRTPEVTCVVIDVAEEDGDVKFNWYVDGVEVHNAKTKPREEQYNSTYRVVSVLTVLHQDWLNGKEYKCKVSNKALPAPIEKTISKAKGQPREPQVYTLPPSRDELTKNQVSLTCLVKGFYPSDIAVEWESNGQPENNYKTTPPVLDSDGSFFLYSKLTVDKSRWQQGNVFSCSVMHEALHNHYTQESLSLSP light: not shown
128	1.5	1030	29.9	IL6R-BP500/IL6R-L (antibody, human IgG1, kappa, name in EU numbering, copies: 2 + 2) heavy: QVQLQESGPGLVKPSETLSLTCAVSGHSISHDHAWSWVRQPPGEGLEWIGFISYSGITNYNPSLQGRVTISRDNSKNTLYLQMNSLRAEDTAVYYCARSLARTTAMDYWGEGTLVTVSSASTKGPSVFPLAPSSKSTSGGTAALGCLVKDYFPEPVTVSWNSGALTSGVHTFPAVLQSSGLYSLSSVVTVPSSSLGTQTYICNVNHKPSNTKVDKKVEPKSCDKTHTCPPCPAPELLGDDSVFLFPPKPKDTLMISRTPEVTCVVIDVAEEDGEVKFNWYVDGVEVHNAKTKPREEQDNSTYRVVSVLTVLHQDWLNGKEYKCKVSNKALPAPIEKTISKAKGQPREPQVYTLPPSRDELTKNQVSLTCLVKGFYPSDIAVEWESNGQPENNYKTTPPVLDSDGSFFLYSKLTVDKSRWQQGNVFSCSVMHEALHNHYTQESLSLSP light: not shown
1810	19.4	503	33.2	IL6R-BP503/IL6R-L (antibody, human IgG1, kappa, name in EU numbering, copies: 2 + 2) heavy: QVQLQESGPGLVKPSETLSLTCAVSGHSISHDHAWSWVRQPPGEGLEWIGFISYSGITNYNPSLQGRVTISRDNSKNTLYLQMNSLRAEDTAVYYCARSLARTTAMDYWGEGTLVTVSSASTKGPSVFPLAPSSKSTSGGTAALGCLVKDYFPEPVTVSWNSGALTSGVHTFPAVLQSSGLYSLSSVVTVPSSSLGTQTYICNVNHKPSNTKVDKKVEPKSCDKTHTCPPCPAPDLLGDDSVFLFPPKPKDTLMISRTPEVTCVVIDVAEEDGEVKFNWYVDGVEVHNAKTKPREEQDNSTYRVVSVLTVLHQDWLNGKEYKCKVSNKGLPRPIEKTISKAKGQPREPQVYTLPPSRDELTKNQVSLTCLVKGFYPSDIAVEWESNGQPENNYKTTPMVLDSDGSFFLYSKLTVDKSRWQQGNVFSCSVMHEALHNHYTQESLSLSP light: not shown
810	10.1	352	29.5	IL6R-BP502/IL6R-L (antibody, human IgG1, kappa, name in EU numbering, copies: 2 + 2) heavy: QVQLQESGPGLVKPSETLSLTCAVSGHSISHDHAWSWVRQPPGEGLEWIGFISYSGITNYNPSLQGRVTISRDNSKNTLYLQMNSLRAEDTAVYYCARSLARTTAMDYWGEGTLVTVSSASTKGPSVFPLAPSSKSTSGGTAALGCLVKDYFPEPVTVSWNSGALTSGVHTFPAVLQSSGLYSLSSVVTVPSSSLGTQTYICNVNHKPSNTKVDKKVEPKSCDKTHTCPPCPAPDLLGDDSVFLFPPKPKDTLMISRTPEVTCVVIDVAEEDGEVKFNWYVDGVEVHNAKTKPREEQDNSTYRVVSVLTVLHQDWLNGKEYKCKVSNKGLPRPIEKTISKAKGQPREPQVYTLPPSRDELTKNQVSLTCLVKGFYPSDIAVEWESNGQPENNYKTTPPVLDSDGSFFLYSKLTVDKSRWQQGNVFSCSVMHEALHNHYTQESLSLSP light: not shown
149	2	962	26	IL6R-BP508/IL6R-L (antibody, human IgG1, kappa, name in EU numbering, copies: 2 + 2) heavy: QVQLQESGPGLVKPSETLSLTCAVSGHSISHDHAWSWVRQPPGEGLEWIGFISYSGITNYNPSLQGRVTISRDNSKNTLYLQMNSLRAEDTAVYYCARSLARTTAMDYWGEGTLVTVSSASTKGPSVFPLAPSSKSTSGGTAALGCLVKDYFPEPVTVSWNSGALTSGVHTFPAVLQSSGLYSLSSVVTVPSSSLGTQTYICNVNHKPSNTKVDKKVEPKSCDKTHTCPPCPAPDLLGDDSVFLFPPKPKDTLMISRTPEVTCVVIDVAEEDGPVKFNWYVDGVEVHNAKTKPREEQDNSTYRVVSVLTVLHQDWLNGKEYKCKVSNKALPAPIEKTISKAKGQPREPQVYTLPPSRDELTKNQVSLTCLVKGFYPSDIAVEWESNGQPENNYKTTPPVLDSDGSFFLYSKLTVDKSRWQQGNVFSCSVMHEALHNHYTQESLSLSP light: not shown
2120	22.3	685	33.8	IL6R-BP499/IL6R-L (antibody, human IgG1, kappa, name in EU numbering, copies: 2 + 2) heavy: QVQLQESGPGLVKPSETLSLTCAVSGHSISHDHAWSWVRQPPGEGLEWIGFISYSGITNYNPSLQGRVTISRDNSKNTLYLQMNSLRAEDTAVYYCARSLARTTAMDYWGEGTLVTVSSASTKGPSVFPLAPSSKSTSGGTAALGCLVKDYFPEPVTVSWNSGALTSGVHTFPAVLQSSGLYSLSSVVTVPSSSLGTQTYICNVNHKPSNTKVDKKVEPKSCDKTHTCPPCPAPDLLGDDSVFLFPPKPKDTLMISRTPEVTCVVIDVAEEDGEVKFNWYVDGVEVHNAKTKPREEQDNSTYRVVSVLTVLHQDWLNGKEYKCKVSNKALPRPIEKTISKAKGQPREPQVYTLPPSRDELTKNQVSLTCLVKGFYPSDIAVEWESNGQPENNYKTTPLVLDSDGSFFLYSKLTVDKSRWQQGNVFSCSVMHEALHNHYTQESLSLSP light: not shown
